This note sets out measurements from the domain aggregation screens of Martell et al. (2025).

This data set is described as follows: soluble fraction after stress (log2 fold change); higher = more stays soluble; pooled small domains, quantitative proteomics. Particulars: stress: 50 degC. The essentials:
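The stress applied to every library was 50°C. These custom libraries of small protein domains were pooled and measured at high throughput with quantitative proteomics as the read-out. Aggregation propensity is expressed as the base-two logarithm of the fold change in how much of each protein remains soluble. The higher the value, the more of that protein stays in solution.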
For “HMEQIETIFLSAAPYARTHIIHLLETSELFRDKYLTIVETSNGLLIYTEDKNRLLGILNSLT”, the “soluble fraction (log2)” value was -1.9.

In the case of “HMEQIFTELIMDGRVLGENLHRMGVDETWLLRQLRQQGYHSAREVFLAVADANKQVAVYPVS”, the “soluble fraction (log2)” value is -0.308.

Turning to “HMEQINVTIQTEKGRIDKVLSEHLPNHSRSQIQQWLKEKHVTVNGETVRANYKVTAGDEIVVTIPEPEV”, the “soluble fraction (log2)” value was determined as 0.206.

Regarding “HMEQISDEDTLRKMVNEVLDNNQTQLEQYKSGKTNLIGFFVGQTLKKSAGKANPSIVNKLVNEEIYI”, the “soluble fraction (log2)” value was determined as 0.00998.

With “HMEQISIETRIEQLLARLSETEASGFEELFADTSSRADLITTFLALLEMIRLKLVRVFQDGSFGPIRIYKR”, the “soluble fraction (log2)” value is -0.27.

For the sequence “HMEQKISVPALVGRDIEEILADTEVTGNFTIKEADKRVASNRPVGEVLEQDPGTGESAVKGTIITVTVSAG”, the “soluble fraction (log2)” value was 0.0124.

For the sequence “HMEQNTKAYEQVRTLTDLLNQYRHEYYNLSAPSVSDQEYDRLFDALAALEKQTGIVMSNSPTQTVG”, the “soluble fraction (log2)” value was found to be 0.0359.

As for “HMEQPAPSTTVDILGGGRAALVTANRELGLALADDEIDYLTDSFTQLGRNPVDVELMMFAQA”, the “soluble fraction (log2)” value was determined as 0.00743.

As for “HMEQSLNTYSIRTVKESLFLAETKNLNKIEKLVEGIEGRLTLSEALVLFSDKLNAMSVLSHVNANT”, the “soluble fraction (log2)” value was -0.148.

As for “HMEQTIKKYVNVATLNFRSGPSTSYSIISTLSKGTKVEVISTTNNWSKIIYDGKIGYVSSEYLSKSI”, the “soluble fraction (log2)” value is -2.1.

For the sequence “HMEQVPEAVGRRVRQARSDRGWTLDQLAERSEVSRRMIVNVEAGTSNASIATLLRLATALNVGLAELVA”, the “soluble fraction (log2)” value was -1.41.

Consider “HMEQVVFNGTGRRKSSIARVRIMSGKGNITVNGKALDEYFGEETLKVIVRQPLTVTDTLDKYDVIATVK”, for which the “soluble fraction (log2)” value worked out at 0.203.

In the case of “HMEQYYVFFAGGMTIGTKEWYESILPENIATSYDDILEGKMMPASLEQIEFYNSHKDYDLYHLFYML”, the “soluble fraction (log2)” value was -4.11.

Turning to “HMERAFRILELFDLKQDELPITEIAERTGLPISTAHRLLSTLETLGYIAQNPDNGRYRLGLQTFVLGSR”, the “soluble fraction (log2)” value was -0.987.

For “HMERAPAYPDGLTQREVEVLRLIASGKTDREIAEELFIGVRTVSTHVGNILNKTNSANRTEAASYANQQGL”, the “soluble fraction (log2)” value is -0.191.

For “HMEREQNIAQGREVVQRELKRLGLTDVFTVEDIGRALKFDDIDEFLSKVGFGDIQTAKITGAIALMQQALR”, the “soluble fraction (log2)” value worked out at 0.0611.

Regarding “HMEREQNIEHGRAIVERELKRLGLSDVYTIADIATALRHDDVDQFLAKIGFGDIQSTQIGGAIAALQQR”, the “soluble fraction (log2)” value was -0.0664.

Take “HMEREQPFAVTEAYRGMRLDRFLQAMLPRMSRAAIQDAIDNRVRLGSGRAAKASLRPAIGDTVFFGQRI”: the “soluble fraction (log2)” value is -0.822.

As for “HMERFRQVNAGMTRDDIYQLLGKPTEKTPFPLKNEEVWSWRHQADGQTVALFNIHLDPDGRVTTTSQSMDL”, the “soluble fraction (log2)” value stood at 0.021.

For the sequence “HMERFVVISKDKYANLREEASTNSKVLAKVDNSYLIYNTNTYNENKDWYSVQIERDGNYYQVGYIHKSQL”, the “soluble fraction (log2)” value is -1.79.

For “HMERLKRVTLSLNQSNYSVTEIARRLQAITGIKDITVVEDEQAVYLKVDPATFDLTLAQQAV”, the “soluble fraction (log2)” value was -0.218.

For the sequence “HMERLLVSKINGMITEAKVSVEDVVKVVASRGHYPEVKSIDEYPDDFLSRWVVPNFKKIVEMINANKEA”, the “soluble fraction (log2)” value amounted to 0.187.

Regarding “HMERMTSTEILTRDFLTTNSKIVKKSTIEELSEIIHVSPATIIRTVKKMGYSGFSEYKNELINQ”, the “soluble fraction (log2)” value was -0.06.

Consider “HMERPEVVAYRLAYASAESLRPALGLVASPSDLEIDERTNTLIVRAVPSVQERVAELVASLDI”, for which the “soluble fraction (log2)” value was -0.237.

With “HMERPKSLRELALEHLRNSIIDGSLKMGQVLSERKISEELGVSKSPVREALAQLRDEGLVSIEPQKGARV”, the “soluble fraction (log2)” value is 0.213.

Turning to “HMERPLFVIEDYRRFAGNEVEISLKKGGKKIRGVIAGTPSDAEVTVRTQGGETTVPLGDVKRAHLVYV”, the “soluble fraction (log2)” value stood at 0.123.

Consider “HMERRDEINSVVSRYVSAITEGKYDLAEVDETGKLRVQTEGREVLPEALSRGTLEQFYFAFRMAVGSI”, for which the “soluble fraction (log2)” value was -0.118.

Take “HMERTQSIEAAREQLGEVTKDNVFETETLGALAILKENEPGEYAKIKADLKGKINMNDLERAVKKAAADQR”: the “soluble fraction (log2)” value is at least 0.62.

Take “HMERYFVLVIYDIVDNKKRLKLSKYLLGYGIRVQKSAFEMMITKEKYNKLIKELPTYIEEGEDSIRLY”: the “soluble fraction (log2)” value was found to be 0.132.

Regarding “HMERYLLRDNIPNALHGERLDRVIAIMTGLSRSAVSALIKSNQVLRNGQIAQSISEKVVEGDELEVHLEP”, the “soluble fraction (log2)” value was -0.0223.

For the sequence “HMESDAIAAAIAALPARYREVLLLRYDNGFSYSEISKALDMTEAAVRKTVQRAKEALQRTLQIQEEDT”, the “soluble fraction (log2)” value was -0.471.

Turning to “HMESDRVAHVVAPGETLFSISGKYGIGMGELVAANPVLESRPPRTGDTLLIRLPENPLPAETDAETLS”, the “soluble fraction (log2)” value came out at 0.121.

Regarding “HMESIAEIDRMNAKIFMDEFQDSLSIMQKTTNPETFFSRYDLAMERLDNMVELQQKGIKFTSDLSSLKAQ”, the “soluble fraction (log2)” value stood at 0.0074.

Regarding “HMESIEGMYKISLLRKQGNAYVIFEDENKEAVEHIFPEKPTALELGTKVIEMFEYKERYDGLI”, the “soluble fraction (log2)” value is -0.366.

In the case of “HMESILDDFPGLGEKRKKALLEHFGSISKIKAATVGQLREVDGIGFETAAALREFLDANFPA”, the “soluble fraction (log2)” value worked out at 0.158.

Consider “HMESIPDELLEAFKQDPAFKQAFYALTAGRQRGYIIHFSQPKQSQTRIGRIEKYKEQIFNGIGLN”, for which the “soluble fraction (log2)” value is -0.643.

In the case of “HMESKPLTPSEIKKLRMDANMTQAGLAEVLGMTVKAVEAWESGRNIPSGAADKILRVMQKHPSVIGMMQS”, the “soluble fraction (log2)” value amounted to 0.156.

Take “HMESLNDRIKLVFKDSGLTQMDISKRLNIAQSSVSGIISGKANPSKRTLADIADRFDVNLEWLRDGTGPMK”: the “soluble fraction (log2)” value was 0.337.

On to “HMESLSHRQKSIVDWVQKNGYASIERMAEQFEVSAQTIRRDVIELSERRILQRHHGGASLPAG”, for which the “soluble fraction (log2)” value was -0.0143.

Consider “HMESNDSNIEDDFYEGLKSMRKGDLKMSVVFFTRVIEKKPTFAEAWNRRATVYYMLGKFDKSMFDINETLK”, for which the “soluble fraction (log2)” value was -0.115.

“HMESPELIHILKEAEWQIWQQIQGLPEKQRIAMTLFAMDDLSYQEIADVMKVSVSAIESLLFRARTQLKKY”: the “soluble fraction (log2)” value is -0.601.

In the case of “HMESPLEQLTNRELQTLQMLGKGLSTKQIAAQLNLSVKTVETYRENLKRKLNLDSGSELIRYAIHRSNE”, the “soluble fraction (log2)” value was found to be 0.469.

Take “HMESPLNPTDVRRAAMDLLARREHGVEELRLKLKRRFGREEDFETIATEQLQRLVDEDLLSDTRF”: the “soluble fraction (log2)” value was -0.165.

Consider “HMESRETGLPVVIISDGRILQDNLKRRGLDLSWLDKQLAEHGYPDFRDVFLLTVDEAGGVYFVPRE”, for which the “soluble fraction (log2)” value is 0.333.

In the case of “HMESSNLESQLKKGIVPNLNGLSAKDALFLLENSGFNVKLYGMGSVKKQSLEAGKKYNKGDKITLIL”, the “soluble fraction (log2)” value turned out to be 0.112.

Take “HMESSYKGFILDIETRQFSPTLIQRRGIAINPSGIVETTTEFSFATQEKVLIEDLKLIIDELDLRADY”: the “soluble fraction (log2)” value was -4.07.

Regarding “HMESTLNYSQFLSLVNEDRVAEVVIQGKELYVTDVNRSRFKVYAPPDPELIGLLRQKRVIISAKP”, the “soluble fraction (log2)” value is -0.0196.

Take “HMESVDRIYERVRRYADDVGTAKIPMKELDDDGPLGTAVSRIRERRKRGELTEEWEARFETLPGWTWAA”: the “soluble fraction (log2)” value worked out at 0.0038.

For “HMESWEDSNIANEFKSTIKIAEKRLAEGGDHPELLEKLEALKQAIINENQTEASKLDDQVNDILFDMDD”, the “soluble fraction (log2)” value was -0.0057.

As for “HMETEAGIKAYLSSSMIKGIGPVTAQRIVERFGKRTLYVLDQMPEKLLDISGISEAKLEEILNGYRKS”, the “soluble fraction (log2)” value is -0.24.
